Measurements as given in publication PMC6551275 (Structure (London, England : 1993), 2019).
Each block holds one binder with its values, some of them ahead of it.

Tests used:
SEC = molecular target: the molecule itself; assay: SEC
AUC = molecular target: the molecule itself; assay: AUC
NMR titration = molecular target: the molecule itself; assay: NMR titration
Ubiquitin = Ubiquitin (UniProt P0CG48 1-76); assay: NMR titration

B1: UBQLN2 450–624 P506A (domain or fragment)
chain: RAMQALMQIQQGLQTLATEAPGLIPSFTPGVGVGVLGTAIGPVGPVTPIGPIGPIVAFTPIGPIGPIGPTGPAAPPGSTGSGGPTGPTVSSAAPSETTSPTSESGPNQQFIQQMVQALAGANAPQLPNPEVRFQQQLEQLNAMGFLNREANLQALIATGGDINAAIERLLGSQPSW
binding result (SEC): binds

B2: UBQLN2 450–624 A488T (domain or fragment)
chain: RAMQALMQIQQGLQTLATEAPGLIPSFTPGVGVGVLGTTIGPVGPVTPIGPIGPIVPFTPIGPIGPIGPTGPAAPPGSTGSGGPTGPTVSSAAPSETTSPTSESGPNQQFIQQMVQALAGANAPQLPNPEVRFQQQLEQLNAMGFLNREANLQALIATGGDINAAIERLLGSQPSW
binding result (SEC): binds

B3: UBQLN2 450–624 P497S (domain or fragment)
chain: RAMQALMQIQQGLQTLATEAPGLIPSFTPGVGVGVLGTAIGPVGPVTSIGPIGPIVPFTPIGPIGPIGPTGPAAPPGSTGSGGPTGPTVSSAAPSETTSPTSESGPNQQFIQQMVQALAGANAPQLPNPEVRFQQQLEQLNAMGFLNREANLQALIATGGDINAAIERLLGSQPSW
binding result (AUC): binds

B4: UBQLN2 450–624 P509S (domain or fragment)
chain: RAMQALMQIQQGLQTLATEAPGLIPSFTPGVGVGVLGTAIGPVGPVTPIGPIGPIVPFTSIGPIGPIGPTGPAAPPGSTGSGGPTGPTVSSAAPSETTSPTSESGPNQQFIQQMVQALAGANAPQLPNPEVRFQQQLEQLNAMGFLNREANLQALIATGGDINAAIERLLGSQPSW
binding result (NMR titration): binds

B5: UBQLN2 450–624 P506T (domain or fragment)
chain: RAMQALMQIQQGLQTLATEAPGLIPSFTPGVGVGVLGTAIGPVGPVTPIGPIGPIVTFTPIGPIGPIGPTGPAAPPGSTGSGGPTGPTVSSAAPSETTSPTSESGPNQQFIQQMVQALAGANAPQLPNPEVRFQQQLEQLNAMGFLNREANLQALIATGGDINAAIERLLGSQPSW
binding result (SEC): binds

B6: UBQLN2 450–624 P497L (domain or fragment)
chain: RAMQALMQIQQGLQTLATEAPGLIPSFTPGVGVGVLGTAIGPVGPVTLIGPIGPIVPFTPIGPIGPIGPTGPAAPPGSTGSGGPTGPTVSSAAPSETTSPTSESGPNQQFIQQMVQALAGANAPQLPNPEVRFQQQLEQLNAMGFLNREANLQALIATGGDINAAIERLLGSQPSW
binding result (AUC): binds

B7: UBQLN2 450–624 T487I (domain or fragment)
chain: RAMQALMQIQQGLQTLATEAPGLIPSFTPGVGVGVLGIAIGPVGPVTPIGPIGPIVPFTPIGPIGPIGPTGPAAPPGSTGSGGPTGPTVSSAAPSETTSPTSESGPNQQFIQQMVQALAGANAPQLPNPEVRFQQQLEQLNAMGFLNREANLQALIATGGDINAAIERLLGSQPSW
binding result (AUC): binds

B8: UBQLN2 450–624 P497H (domain or fragment)
chain: RAMQALMQIQQGLQTLATEAPGLIPSFTPGVGVGVLGTAIGPVGPVTHIGPIGPIVPFTPIGPIGPIGPTGPAAPPGSTGSGGPTGPTVSSAAPSETTSPTSESGPNQQFIQQMVQALAGANAPQLPNPEVRFQQQLEQLNAMGFLNREANLQALIATGGDINAAIERLLGSQPSW
binding result (SEC): binds

B9: UBQLN2 450–624 P506S (domain or fragment)
chain: RAMQALMQIQQGLQTLATEAPGLIPSFTPGVGVGVLGTAIGPVGPVTPIGPIGPIVSFTPIGPIGPIGPTGPAAPPGSTGSGGPTGPTVSSAAPSETTSPTSESGPNQQFIQQMVQALAGANAPQLPNPEVRFQQQLEQLNAMGFLNREANLQALIATGGDINAAIERLLGSQPSW
binding result (SEC): binds

binding result (Ubiquitin): binds
B10: UBQLN2 450–624 (domain or fragment)
chain: RAMQALMQIQQGLQTLATEAPGLIPSFTPGVGVGVLGTAIGPVGPVTPIGPIGPIVPFTPIGPIGPIGPTGPAAPPGSTGSGGPTGPTVSSAAPSETTSPTSESGPNQQFIQQMVQALAGANAPQLPNPEVRFQQQLEQLNAMGFLNREANLQALIATGGDINAAIERLLGSQPSW

B11: UBQLN2 450–624 P500S (domain or fragment)
chain: RAMQALMQIQQGLQTLATEAPGLIPSFTPGVGVGVLGTAIGPVGPVTPIGSIGPIVPFTPIGPIGPIGPTGPAAPPGSTGSGGPTGPTVSSAAPSETTSPTSESGPNQQFIQQMVQALAGANAPQLPNPEVRFQQQLEQLNAMGFLNREANLQALIATGGDINAAIERLLGSQPSW
binding result (NMR titration): binds
